Source: the DeepSol protein solubility set

Test: soluble on expression in E. coli; label from the status in PepcDB or PDB records

Row | Sequence | soluble on expression in E. coli
1 | MGDVAGMAYLDSMSNEKVWFGYTLKEAQAQQIGLGLDLKGGMNVILKLNASDLLRNLSNKSLDPNFNKALENAAKSTEQSDFIDIFVKEYRKLDPNGRLAVIFGSGDLRDQITAKSTDADVVRLLKEKYNSAVEASFNVLRARIDAFGVVAPNLQRLEGQGRILVELPGVKDPERVRTLLQRSANLQFWRTYKFEEVSGDLIAANDRLSELAMNNTDATPETEPATTDSVAATADSAAVQAVADSATVAQKEAKDATRKDALFSLLTPVNRGGAVVGVARRANMAQISEMLQQAHDLKVTREDVLFLWGAKAIEDPETKKETDLYELYAIRTNRTGDPDLGGDVVTSAKSDIQNDFGRSEPIVSMTMNEEGARKWARITKDNVGRAIAIVLDGVVYSAPNVNDEITGGRSQISGHFTVEEAGDLANVLNSGKMDATVSIEQENVIGPTLGAESIKA | not soluble
2 | MGEAETPSFEMTWSSTTSSGYCSQEDSDSELEQYFTARTSLVRRPRRDQDEAVERETPDLSQAETEQKIKDYNGQINSNLFMSLNKDGSYTGFIKVQLKLVRPVSVPSSKKPPSLQDARRGTGRSTAVKRRTSFYLPKDAIKHLHVLSRTRAREVIEALLRKFMVVDDPRKFALFERTERHGQVYLRKLSDDEQPLKLRLLAGPSEKALSFVLKENDSGEVNWDAFSMPELHNFLRILQREEEEHLRQILQKYSRCRQKIQEALHACPLG | soluble
3 | MGEEFEKLMKKFENVNKDGEIVEDEDEWEEFFKQEEYVKIPKDRIAVLIGKKGQTKKEIEKRTKTKITIDSETGEVWITSTKETEDPLAVWKARDIVLAIGRGFSPERAFRLLNEGEYLEIINLTDIIIGNEKNALPRVRGRIIGRKGRTRQIIEEMSGASVSVYGKTVAIIGNPIQIEIAKTAIEKLARGSPHGSVYRYLERRKKDLELEGAMYYENL | soluble
4 | MGERADTFLAHFNRIEKWMRERLNNPVNMGFSEMTRRLSRKEKGQIAQFEEDLLQMAQLRNAIVHERIADDFVIAEPNEWAVQRIETIEQALTKPEKVVPKFAKRVTAFEITTSLETLLTIIAKKQYSQFPIYEKGVFKGLITVRGIGVWFAIESTKGEVHIANRTVRELLASNYKRSNYQFVSIEATVFEVEQMFREQPRLEAVLISKSGHPNGELVGIVRPRDLASIHREKE | not soluble
5 | MGESSGGGNSRQLQFSRKAGKGVVKTIHEYRSKPLRVGRKGEWRPAISDENRKLIRGVAEIIKIRPINVPDYAVVNPLGIMRQAYGTMVGGIANEPWSLESRKTIEEVVFLPIMDGEVRKGQLEHHHHHH | not soluble
6 | MGEVFKMDGLASTILEVHKPAKLEDIPDEDPIAIILALKWLEYLCERAGVENVSDILDFYYMLGWLGDKALAKLLKFLKGIKVDEENVVEGSGKLNITDHIISLLFIERLNGKKISAELLDKIEWELRKIKKGAEQFYGI | not soluble
7 | MGEYIRYQGEEALGLIETLGMVPAIYGADSMLKAANVQLISYENVGSTLVTVMVKGDVAAVQASVDAGSVAAAGIGKLTAHNVMPRPIRPIGDIVSVHAITDDAPAGDGSRPRAMGLIETFGIVYVLEAADAMLKTADVELIGYENVASGYISVLVQGDVAACQAAVAAGVKAVQAMGTDVYSSVVIPTPHPDVAKITARYALENLLP | not soluble
8 | MGFFDSGIGGMTVLYEAIKVLPYEDYIFYADTLNVPYGEKSKGKVKEYIFNAAEFLASQNIKALVIACNTATSIAIEDLRRNFDFPIIGIEPAVKPAINKCTEERKRVLVVATNLTLKEEKFHNLVKEIDHHDLVDCLALPGLVEFAENFDFSEDKIIKYLKNELSSFDLKQYGTIVLGCTHFPFFKNSFEKLFGIKVDMISGSVGTAKQLKKVLADRNQLGKGSGSITFFNSGHKIVDQEVISKYKRLFEILDETQRSHVGH | not soluble
9 | MGFGIGDLFWIFLLLTSLQPLWQKRQIEYRRLRALQEFQQERKSRVILLIHRQESISFLGIPISRYITIEDSEQILRAIRLTPPDVPIDLILHTPGGLVLATEQIARALIRHQAKVTVFVPHYAMSGGTMLALASDEIIMDANAVLGPVDPQLGNYPAASILKVIEDKPISEIDDQTLIMADLSRKAIGQVQRFVRTLLKDSIPKQKVLPENIESIIEALTTGRVTHDYPITIEEATEMGLPVTVGLPHSIYDLMDLYPQAQGGRPSVQYIPMPYNDPRPIL | not soluble
10 | MGFKCGIVGLPNVGKSTLFNALTKAGIEAANYPFCTIEPNTGVVPMPDPRLDALAEIVKPERILPTTMEFVDIAGLVAGASKGEGLGNKFLANIRETDAIGHVVRCFENDDIVHVAGKIDPLDDIDTINTELALADLDSCERAIQRLQKRAKGGDKEAKFELSVMEKILPVLENAGMIRSVGLDKEELQAIKSYNFLTLKPTMYIANVNEDGFENNPYLDRVREIAAKEGAVVVPVCAAIESEIAELDDEEKVEFLQDLGIEEPGLNRVIRAGYALLNLQTYFTAGVKEVRAWTVSVGATAPKAAAVIHTDFEKGFIRAEVIAYEDFIQFNGENGAKEAGKWRLEGKDYIVQDGDVMHFRFNV | soluble
11 | MGFVDRGGGREAKGASLRRSKNNPGASIAKNKSAKKDYTTPATRATPTPPPACLPVLKALMAAASAGATAMEATAASTVTDFEKALAAVRDAAQTGGSPYIDAAVALLSRKLEEDREGIFRRAAEEGKLAAVVCWCGEAERQSLLLNTCVQHNKLYRGTLEQQQRSSATGGGARHVHFNVDGAVVASVAAAVTTSSSSTKASILLYAVLGIHVNSIDRVNMRLHDQWVKELEANVKHSDVVGVLTGLNLSREHGTHYAQERLFKECWRVAAEVRLPLVLHLGAADAASLTETVNRAAKLLDELLAATSATADGAGAAPSAVVLHNGLRALHASTAMQQLVRAHRPAAGRTAAAVPFYVLATADGLAVAKTEGSETEVTATTDSGPSVEALAALLPPRAGLGSNSDSATTTSSGGDAAVHLSQLLIGTGAPWGTPQNLPDPYLCTLPNEPGNYAYVVQTLYDAMRAPPPPPTAAAAAAELTLADLSAIAAVNYLLAFFHECVWEQEQQQQQQRSGSDDETTADALQQQQRRWVESQQPVVVAGLADSDVKRDLEALLAEAAKERERMEQERLREEAGLAQARSEELQQKRSRRERKKNVKANNRSNFTHFRNKDFAPRQSKQEKPAHLREVVGIREGGSTDVDGRERTPSSSSAASDSGSAGGPNSLAAQVERLLKANAAHRDPECRAQRQPAGRGKGRGQNALAGSRKVGRSADMKSSEQPQQQYGAGAGGKAENGSPSDGSDDDDERYTRTRAL | not soluble
12 | MGGAERVMATLANEFVKRGHQVRLVTLKKAVSAYELDKRVEFIGGGADINSGNFLIKRIQMISAVIKGTLFYRRQLREYKPDIILSFLTYTNLLSVINNRISRVKYPVVVSERCDPRKRSKLLIKLCNIVYPLADCIVCQSKVIQDYFLNKNPKSVTKVIPNPVNEECINKEEIIKRRKLIVAVGRLSNQKNYDLLIDAFSDIANEYSEYRLEIYGEGPERERLQKKINRLGLNDRIQLMGTKTNVMKHIADAQLFVMSSNFEGFPNALAEAMASGLPVISTNFPSGVAKELIIDGENGYVVDINNREQMADAMRKILGDPLTITKMSKNNVLLREKLNVKTVANMWENLFNDILEKRTKNEKN | not soluble
13 | MGGFGVGKTTLVRSVSEIRPLNTEEVMTQAGVGVDETGGVTSKTTTTVAFDFGRISLNDRMVLYLFGAPGQERFWFLWDRLFSGTLGAVVLVDTRRMDDSWYAIDRLEHHRTPFVVAVNRFDDDTARHSLDEIRLALALPDHVPLIDCDARVRTSGKHVLVTLVDHLYQLALAQESASLEHHHHHH | not soluble
14 | MGGLDKMSVEKKLLLDVKDLKVHFNITPKSAWPWTKPVTLKAVDGVNVRLYEGETLGVVGESGCGKSTFARAIIGLVQATHGEVVWLGQDLTRMQEVKRRATRKQIQMIFQDPLASLNPRMTVGDIIAEPLQTFYPELSKQEVKDRVKEMMAKVGLLPNVINRYPHEFSGGQCQRIGIARALILKPKMIICDEPVSALDVSIQAQVVNLLKELQKELGLSLVFIAHDLSVVKHISDRVLVMYLGNAVELGVSKELFANPKHPYTKALMSAVPIPDPNIERNKTIQMLEGDLPSPMNPPSGCVFRTRCPQATAECAKTKPVIKGSDIHSVSCLYAEA | not soluble
